Patent US20110021367A1 (INDIAN INSTITUTE OF SCIENCE, published 2011)

B1: σ^L 1-177 (Mycobacterium tuberculosis sigma factor L, Rv0735), N-term His-tag (other)
chain: MARVSGAAAAEAALMRALYDEHAAVLWRYALRLTGDAAQAEDVVQETLLRAWQHPEVIGDTARPARAWLFTVARNMIIDERRSARFRNVVGSTDQSGTPEQSTPDEVNAALDRLLIADALAQLSAEHRAVIQRSYYRGWSTAQIATDLGIAEGTVKSRLHYAVRALRLTLQELGVTR
notes: range 1-177; also called SigL; Mtb σ^L; not shown: N-terminal His-tag from pET-Duet1 MCS1
B2: apo-RslA 1-108 (Zn2+ free, oxidized N-terminal domain of M. tuberculosis RslA), N-term His-tag (other)
chain: MTMPLRGLGPPDDTGVREVSTGDDHHYAMWDAAYVLGALSAADRREFEAHLAGCPECRGAVTELCGVPALLSQLDRDEVAAISESAPTVVASGLSPELLPSLLAAVHR
modifications: Zn2+ removed with H2O2 and TPEN; oxidized, one disulfide bond
notes: range 1-108; Same polypeptide as holo-RslA; for SPR made on the chip by passing 10 mM H2O2 and 2 mM TPEN over immobilized RslA; also called Zn^2+ free RslA; oxidized RslA; not shown: N-terminal His-tag from pET-Duet1 MCS1

Experiments:
[1] = target: B2; assay: SPR (BIACORE 2000), immobilized RslA freed of Zn2+ with H2O2/TPEN, σ^L as analyte
[2] = target: the molecule itself; assay: analytical gel filtration; dynamic light scattering
[3] = target: B1; assay: SPR (BIACORE 2000), immobilized RslA freed of Zn2+ with H2O2/TPEN, σ^L as analyte

| Binder | fold reduction in affinity against Zn2+ bound RslA [1] [fold] | binding result [2] | Kd [3] [nM] |
| --- | --- | --- | --- |
| B1 | 7 |  |  |
| B2 |  | binds | ~150 |
